The record followed here is patent US20060153775A1.

As a reminder, the IC50 is the concentration that inhibits the measured activity by half. Read a low IC50 as greater potency.

In experiment [1] the target is binding target for TKPPR on HAEC (human aortic endothelial cells). Nature of the experiment: competition of 5% composition bubble binding to HAEC; KDR/Fc 125 ng/mL.
For experiment [2] the target is unchanged. Nature of the experiment: competition of 5% composition bubble binding to HAEC; KDR/Fc 250 ng/mL.
For experiment [3] the target is unchanged. The experiment is described as follows: competition of 5% composition bubble binding to HAEC; KDR/Fc 500 ng/mL.
For experiment [4] the target is unchanged. The experiment is described as follows: competition of 5% composition bubble binding to HAEC; KDR/Fc 1000 ng/mL.
The target is the same in experiment [5]. The experiment is described as follows: competition of 5% composition bubble binding to HAEC; KDR/Fc 2500 ng/mL.
Experiment [6] shares this target. Nature of the experiment: competition of 2% D47 bubble binding to HAEC; VEGF121 100 ng/mL.
Experiment [7] shares this target. Nature of the experiment: competition of 2% D47 bubble binding to HAEC; VEGF121 200 ng/mL.
The target is the same in experiment [8]. The experiment is described as follows: competition of 2% D47 bubble binding to HAEC; VEGF121 400 ng/mL.
Experiment [9] shares this target. Nature of the experiment: competition of 5% composition bubble binding to HAEC.
For experiment [10] the target is unchanged. Nature of the experiment: competition of 2% D47 bubble binding to HAEC; VEGF165 25 ng/mL.
Experiment [11] shares this target. Nature of the experiment: competition of 2% D47 bubble binding to HAEC; VEGF165 100 ng/mL.
Experiment [12] shares this target. Nature of the experiment: competition of 5% composition bubble binding to HAEC; VEGF165 25 ng/mL.
For experiment [13] the target is unchanged. The experiment is described as follows: competition of 5% composition bubble binding to HAEC; VEGF165 50 ng/mL.
Experiment [14] has the same target. Nature of the experiment: competition of 5% composition bubble binding to HAEC; VEGF165 75 ng/mL.
Experiment [15] has the same target. Nature of the experiment: competition of 5% composition bubble binding to HAEC; VEGF165 12.5 ng/mL.
Experiment [16] shares this target. Nature of the experiment: competition of 5% composition bubble binding to HAEC; VEGF165 6.25 ng/mL.
For experiment [17] the target is unchanged. Nature of the experiment: fluorescent beads on confluent HAEC, static 30 min, image analysis.

soluble human KDR/Fc chimera (R&D Systems Inc.), sequence (P35968 20-764, change not shown): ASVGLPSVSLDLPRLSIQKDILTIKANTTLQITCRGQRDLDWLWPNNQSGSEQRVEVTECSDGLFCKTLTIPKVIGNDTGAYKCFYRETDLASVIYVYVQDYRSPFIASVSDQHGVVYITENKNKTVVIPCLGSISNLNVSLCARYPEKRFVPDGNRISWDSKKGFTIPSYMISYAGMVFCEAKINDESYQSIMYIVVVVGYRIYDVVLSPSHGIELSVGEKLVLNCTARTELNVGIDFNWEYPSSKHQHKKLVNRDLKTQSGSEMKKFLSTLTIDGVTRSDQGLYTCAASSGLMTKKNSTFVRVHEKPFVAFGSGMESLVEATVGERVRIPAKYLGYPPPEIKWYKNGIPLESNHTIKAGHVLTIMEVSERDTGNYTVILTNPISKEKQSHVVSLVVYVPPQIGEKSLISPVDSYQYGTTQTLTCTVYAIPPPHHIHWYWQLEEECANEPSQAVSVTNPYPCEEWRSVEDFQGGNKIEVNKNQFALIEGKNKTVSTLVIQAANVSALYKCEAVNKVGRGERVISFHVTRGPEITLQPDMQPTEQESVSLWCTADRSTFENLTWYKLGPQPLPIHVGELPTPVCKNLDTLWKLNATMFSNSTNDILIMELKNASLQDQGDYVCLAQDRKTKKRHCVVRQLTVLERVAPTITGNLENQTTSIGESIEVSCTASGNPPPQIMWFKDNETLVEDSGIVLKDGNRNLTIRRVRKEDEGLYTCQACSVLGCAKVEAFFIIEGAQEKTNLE

“soluble human KDR/Fc chimera (R&D Systems Inc.) (from UniProt P35968 20-764) (Fc fusion)”: the Bubbles Bound in presence of competitor in experiment [1] was 1030 bubbles; in [2], 786 bubbles; in experiment [3], 342 bubbles; in experiment [4], 75 bubbles; in experiment [5] it was 84 bubbles.
In the case of “VEGF121 (from UniProt P15692 27-147) (ligand)”, the Bubbles Bound in presence of competitor in experiment [6] was 878 bubbles; in [7] it was 849 bubbles; in experiment [8], 778 bubbles.
In [9], “VEGF165 (from UniProt P15692 27-191) (ligand)” yielded a concentration for half-maximal inhibition (IC50) of 0.0125 µg/mL. Besides, the Bubbles Bound in presence of competitor in [10] turned out to be 144 bubbles; in experiment [11], 94 bubbles; in experiment [12], 342 bubbles; in experiment [13], 226 bubbles; in experiment [14], 190 bubbles; in [15] it was 599 bubbles. Besides, the Bubbles Bound in presence of competitor in [16] worked out at 1180 bubbles.
Consider “BSA-conjugated fluorescent microspheres (from UniProt P02769 25-607)”, for which the Integrated density of bound beads (arbitrary units) in experiment [17] turned out to be 1.61.
